Drawing on patent US20230242658A1 (published 2023), this text covers EC50 for 1 molecule.

Assay [1] deals with T1, cynomolgus monkey 4-1BB on CHO-K1 cells (cynomolgus monkey).
T1 chain: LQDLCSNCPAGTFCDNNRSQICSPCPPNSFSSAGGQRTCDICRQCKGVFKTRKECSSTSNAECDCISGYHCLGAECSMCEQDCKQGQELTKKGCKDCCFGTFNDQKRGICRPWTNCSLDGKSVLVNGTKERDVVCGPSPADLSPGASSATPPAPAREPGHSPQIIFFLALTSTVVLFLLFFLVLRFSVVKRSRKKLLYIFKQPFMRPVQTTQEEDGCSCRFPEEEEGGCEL
The experiment in a line: FACS; FIG. 12F. For orientation: A flow cytometer gives signals particle by particle.

The target of assay [2] is T1, cynomolgus monkey 4-1BB on CHO-K1 cells. Put plainly: FACS; FIG. 12A.
The target is the same in assay [3]. Put plainly: FACS; FIG. 12H.
The target is the same in assay [4]. The experiment in a line: FACS; FIG. 21A.
Assay [5] shares this target. Put plainly: FACS; FIG. 21B.
The target is the same in assay [6]. Put plainly: FACS; FIG. 12J.
Assay [7] has the same target. Put plainly: FACS; FIG. 12K.
Assay [8] has the same target. The experiment in a line: FACS; FIG. 12E.
The target is the same in assay [9]. Put plainly: FACS; FIG. 12C.
The target is the same in assay [10]. Put plainly: FACS; FIG. 12D.
The target is the same in assay [11]. The experiment in a line: FACS; FIG. 12B.
For assay [12] the target is unchanged. The experiment in a line: FACS.
Assay [13] shares this target. The experiment in a line: FACS; FIG. 12L.
The target is the same in assay [14]. The experiment in a line: FACS; FIG. 12I.
The target is the same in assay [15]. The experiment in a line: FACS.

B1: Utomilumab (antibody, V domains shown)
VH: EVQLVQSGAEVKKPGESLRISCKGSGYSFSTYWISWVRQMPGKGLEWMGKIYPGDSYTNYSPSFQGQVTISADKSISTAYLQWSSLKASDTAMYYCARGYGIFDYWGQGTLVTVSS
VL: SYELTQPPSVSVSPGQTASITCSGDNIGDQYAHWYQQKPGQSPVLVIYQDKNRPSGIPERFSGSNSGNTATLTISGTQAMDEADYYCATYTGFGSLAVFGGGTKLTVLG
As usually defined, the EC50 is the concentration needed to bring the measured effect to its halfway point. For the molecule B1, the EC50 is 3460 pM in [1]; 3460 pM in assay [2]; 393 pM in assay [3]; 1340 pM in assay [4]; 984 pM in [5]; 435 pM in assay [6]. In addition, the 50% effective concentration (EC50) in [7] was determined as 503 pM; in [8], 3460 pM; in assay [9] it was 3460 pM; in assay [10], 3460 pM; in assay [11] it was 3460 pM; in assay [12] it was 347 pM. The half-maximal effective concentration (EC50) in assay [13] was determined as 425 pM; in [14], 378 pM; in assay [15], 337 pM.
